From patent US20090082268A1 (GEYMONAT S P A, published 2009)

Target: T1, human VEGFR-1/Fc (R&D Systems) (human, UniProt P17948 27-756, limits assumed)
T1 construct: Bought reagent, coated on the ELISA plate; also called receptor Flt-1; not shown: Fc part of the bought fusion
Experiment: ELISA: VEGFR-1/Fc coated, PlGF-1 diluted two-fold from 20 ng/ml, detected with biotinylated anti-human PlGF antibodies
Experimental: To test receptor binding, an ELISA assay was performed according to the following protocol: [0141] 1. Well of 96-well microtiter plate were coated with 200 μl of 1 μg/ml human VEGFR-1/Fc (R&D Systems) and incubated overnight at 4° C. [0142] 2. Two-fold dilution series starting at 20 ng/ml of various preparations of recombinant human PlGF-1 were prepared and added in a volume of 100 μl per well. The plate was incubated for 2 hours at room temperature. [0143] 3. Bound PlGF-1 was captured with biotinylated anti-human PlGF antibodies (R&D Systems) added in a volume of 100 μl per well for 1 hour at room temperature. [0144] 4. A 1:200 dilution of horseradish peroxidase-conjugated streptavidin (R&D Systems) was added and incubated for 20 min. at room temperature. [0145] 5. Substrate solution (TMB from Pierce) was added and after 15 min. the reaction was quenched with 2 M sulfuric acid. [0146] 6. The absorbance was measured at 450 nm.

T1 sequence (P17948 27-756 limits assumed): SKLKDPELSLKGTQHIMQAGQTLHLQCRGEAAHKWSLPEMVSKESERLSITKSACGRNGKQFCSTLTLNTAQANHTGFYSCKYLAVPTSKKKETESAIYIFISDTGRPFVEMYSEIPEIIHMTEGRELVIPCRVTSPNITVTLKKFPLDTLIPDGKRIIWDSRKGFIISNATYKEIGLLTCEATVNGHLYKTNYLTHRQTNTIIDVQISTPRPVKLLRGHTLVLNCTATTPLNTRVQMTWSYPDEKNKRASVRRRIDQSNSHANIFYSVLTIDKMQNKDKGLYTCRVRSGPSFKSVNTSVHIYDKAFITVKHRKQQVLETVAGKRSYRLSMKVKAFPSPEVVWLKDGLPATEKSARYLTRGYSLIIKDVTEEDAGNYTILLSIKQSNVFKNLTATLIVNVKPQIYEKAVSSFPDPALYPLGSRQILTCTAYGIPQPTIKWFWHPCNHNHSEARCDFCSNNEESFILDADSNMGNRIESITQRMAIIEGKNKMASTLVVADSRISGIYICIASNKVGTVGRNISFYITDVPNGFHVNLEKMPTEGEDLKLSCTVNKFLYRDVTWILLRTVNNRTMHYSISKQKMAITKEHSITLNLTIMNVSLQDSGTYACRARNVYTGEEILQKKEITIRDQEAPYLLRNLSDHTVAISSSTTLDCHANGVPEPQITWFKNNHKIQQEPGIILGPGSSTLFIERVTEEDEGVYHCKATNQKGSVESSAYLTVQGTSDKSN

binding result: binds
B1: PlGF-1 mutein from Geymonat (recombinant human PLGF-1CG) (ligand)
chain: MLPAVPPQQWALSAGNGSSEVEVVPFQEVWGRSYCRALERLVDVVSEYPSEVEHMFSPSCVSLLRCTGCCGDENLHCVPVETANVTMQLLKIRSGDRPSYVELTFSQHVRCECRPLREKMKPERGGDAVPRR
notes: Described as 'a PlGF-1 mutein embodiment of the present invention'; also called Geymonat Mutein; Mutein Geymonat
